Legend:
SiaD [1] = molecular target: T1, SiaD (Pseudomonas aeruginosa, UniProt A0A069QEY1); assay: X-ray crystal structure of SiaC–SiaD–GpCpp complex, […] Å; format: binding; design: gene pleD_6; full-length SiaD (redefined start at the upstream ATG codon); with SiaC (2:4 SiaD–SiaC complex)
SiaD [2] = molecular target: T1, SiaD; assay: HPLC DGC activity assay with […] c-di-GMP; thermal shift (+[…] ℃ at […]); SEC; inhibition abolished by R201A; format: biochemical; design: gene pleD_6; full-length SiaD, alone and in the SiaC–SiaD complex
[3] = molecular target: SiaD (full length, sumo-His tag removed) (Pseudomonas aeruginosa); assay: SEC-MALS; SiaC-SiaD complexes (wild type and SiaD motif mutants) at 2 mg/ml, WTC-030S5 column, 20 mM HEPES pH 7.0, 150 mM NaCl, DTT
[4] = molecular target: SiaD (full length, sumo-His tag removed) (Pseudomonas aeruginosa); assay: SEC-MALS; SiaD alone at 4 mg/ml, WTC-030S5 column, 20 mM HEPES pH 7.0, 150 mM NaCl, 1 mM DTT
[5] = molecular target: SiaD (full length, sumo-His tag removed) (Pseudomonas aeruginosa); assay: SEC-MALS; single proteins: SiaC at 1.5 mg/ml, SiaD at 8 mg/ml, WTC-030S5 column, 20 mM HEPES pH 7.0, 150 mM NaCl, DTT
[6] = molecular target: SiaD (full length, sumo-His tag removed) (Pseudomonas aeruginosa); assay: crystal structure; SiaC-SiaD complex (10 mg/ml) with GpCpp 1:5, sitting drops at 18°C, space group C222(1), 2.65 Å
[7] = molecular target: SiaD (full length, sumo-His tag removed) (Pseudomonas aeruginosa); assay: SAXS; synchrotron solution SAXS (SEC-SAXS for SiaD), 20 mM HEPES pH 8.0, 150 mM NaCl, 1 mM DTT, 25°C; 8 mg/ml SiaD or 11 mg/ml SiaC-SiaD complex
[8] = molecular target: SiaD (full length, sumo-His tag removed) (Pseudomonas aeruginosa); assay: native gel or EMSA; blue native PAGE, 8% gel, SiaD (25 ug) alone or mixed with excess SiaC (35 ug), 50 min at 15 mA, Coomassie stain
SiaD [9] = molecular target: T1, SiaD; assay: ITC (also HPLC assay of c-di-GMP production from GTP); format: binding; design: gene pleD_6; SiaD alone, full length
[10] = molecular target: SiaD (full length, sumo-His tag removed) (Pseudomonas aeruginosa); assay: ITC; SiaD in the cell, SiaC or SiaC mutant in the syringe, 25°C, MicroCal iTC200 or PEAQ-ITC
[11] = molecular target: SiaD^S50A-Q54A (Pseudomonas aeruginosa); assay: SEC-MALS; SiaC-SiaD complexes (wild type and SiaD motif mutants) at 2 mg/ml, WTC-030S5 column, 20 mM HEPES pH 7.0, 150 mM NaCl, DTT
[12] = molecular target: SiaD^S82A-Q86A (Pseudomonas aeruginosa); assay: as above
[13] = molecular target: SiaD (full length, sumo-His tag removed) (Pseudomonas aeruginosa); assay: SPR; Biacore T200, protein amine-coupled to a CM5 chip (about 5000 RU), 25°C; running buffer 10 mM Tris-HCl, 150 mM NaCl, 0.05% P-20, pH 7.5; SiaC or SiaC^M3 at varying concentrations over SiaD; fits to a 2:1 interaction

In the case of `Nc1nc2c(ncn2[C@@H]2O[C@H](COP(=O)(O)CP(=O)(O)OP(=O)(O)O)[C@@H](O)[C@H]2O)c(=O)[nH]1` [GpCpp], the “X-ray crystal structure of SiaC-SiaD-GpCpp complex, 2.65 Å” value (SiaD [1]) is reported as “a non-hydrolyzable GTP analog GpCpp molecule was observed to bind in the active site of SiaD-A”.

With `Nc1nc2c(ncn2[C@@H]2O[C@@H]3CO[P@](=O)(O)O[C@H]4[C@@H](O)[C@H](n5cnc6c(=O)[nH]c(N)nc65)O[C@@H]4CO[P@](=O)(O)O[C@H]3[C@H]2O)c(=O)[nH]1` [c-di-GMP] the “HPLC DGC activity assay with 50 μM c-di-GMP; thermal shift (+7.1 °C at 25 μM); S” value (SiaD [2]) was “the enzyme activity of SiaD was inhibited by c-di-GMP more extensively than the SiaC–SiaD complex”.

For “SiaD (full length, sumo-His tag removed) (enzyme)”, the stoichiometry N [3] was 2, the stoichiometry N [4] was 5 and the stoichiometry N [5] was 5. The stoichiometry N [6] was 2, the stoichiometry N [7] was 5 and the stoichiometry N [8] was 5.

Work on `Nc1nc2c(ncn2[C@@H]2O[C@H](COP(=O)(O)OP(=O)(O)OP(=O)(O)O)[C@@H](O)[C@H]2O)c(=O)[nH]1` [GTP] yielded a Kd (SiaD [9]) of 12 µM.

B1: SiaC (sumo-His tag removed) (natural protein)
chain: MSDLHIPGTQSTPAIQGDWQAGRLSMQGDSYPENSYELFGQVIDWVERFLADGQRPLELDLRLLYLNTSSIKAMMDILDLLEEAHQGGRPVSLRWHYDRRNERVAELAEEFREDCSFPFAIQAHDE
For B1, the Kd [10] was 0.0498 µM, the stoichiometry N (SiaC per SiaD (2:4 SiaD:SiaC)) [11] was 2 and the stoichiometry N (SiaC per SiaD (2:4 SiaD:SiaC)) [12] was 2.

B2: SiaC-His (natural protein)
chain: MSDLHIPGTQSTPAIQGDWQAGRLSMQGDSYPENSYELFGQVIDWVERFLADGQRPLELDLRLLYLNTSSIKAMMDILDLLEEAHQGGRPVSLRWHYDRRNERVAELAEEFREDCSFPFAIQAHDE
With B2 the Kd [13] was 0.0118 µM.
